System: tau

Gleevec-resistant abl1 (T3611 form)
tyrosine phosphorylation of tau in the presence of Gleevec (western blot, ELISA): In the presence of Gleevec, both forms could phosphorylate tau
